Changes are numbered by the printed parent chain. One block for each binder: values may come before it.
Columns and labels:
Conditions in all cases: one partner purified
[1] = molecular target: T1, human CCR7 A315G fused to YPet (human, UniProt P32248 25-378, A315G); test: flow cytometry on cells; HeLa cells transiently expressing YPet-tagged CCR7 variants incubated at 4 °C for indicated times with 25 nM CCL19-S6^649P1, washed, MFI (chemokine binding)
T1 construct: chemokine receptor CCR7, human (hCCR7), point mutant A315G; also called hCCR7-YPet A315G; source: HeLa, transiently transfected (pcDNA3 hCCR7-YPet A315G), on cells; not shown: YPet, C-terminal, kept
T1 sequence (looked up): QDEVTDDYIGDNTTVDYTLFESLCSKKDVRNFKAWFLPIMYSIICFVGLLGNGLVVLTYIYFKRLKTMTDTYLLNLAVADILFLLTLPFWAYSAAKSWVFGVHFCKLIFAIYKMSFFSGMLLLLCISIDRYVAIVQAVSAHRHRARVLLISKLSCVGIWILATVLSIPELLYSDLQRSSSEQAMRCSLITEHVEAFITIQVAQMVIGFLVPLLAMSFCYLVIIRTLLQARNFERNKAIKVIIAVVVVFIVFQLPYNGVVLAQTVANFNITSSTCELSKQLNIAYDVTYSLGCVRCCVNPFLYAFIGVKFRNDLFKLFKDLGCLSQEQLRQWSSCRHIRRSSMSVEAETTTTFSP

[2] = molecular target: T2, human CCR7 L325S fused to YPet (human, UniProt P32248 25-378, L325S); test: as above
T2 construct: chemokine receptor CCR7, human (hCCR7), point mutant L325S; also called hCCR7-YPet L325S; source: HeLa, transiently transfected (pcDNA3 hCCR7-YPet L325S), on cells; not shown: YPet, C-terminal, kept
T2 sequence (looked up): T1 sequence (looked up) with G291A, L301S

[3] = molecular target: T1, human CCR7 A315G fused to YPet; test: flow cytometry on cells; competition: HeLa cells transiently expressing YPet-tagged CCR7 variants, 37 °C, 30 min, 25 nM CCL19-S6^649P1 with graded concentrations of native unlabelled hCCL19; MFI (binding and uptake)
[4] = molecular target: T3, human CCR7 wild-type fused to YPet (hCCR7-YPet) (human, UniProt P32248 25-378); test: as above
T3 construct: chemokine receptor CCR7, human (hCCR7); also called CCR7 WT; wild-type CCR7; source: HeLa, transiently transfected (pcDNA3 hCCR7-YPet), on cells; not shown: YPet, C-terminal, kept
T3 sequence (looked up): T1 sequence (looked up) with G291A

[5] = molecular target: T2, human CCR7 L325S fused to YPet; test: as above
[6] = molecular target: T4, human CCR7 SNP V317I fused to YPet (human, UniProt P32248 25-378, V317I); test: as above
T4 construct: chemokine receptor CCR7, human (hCCR7), naturally occurring SNP V317I; also called CCR7 V317I; hCCR7-YPet V317I; source: HeLa, transiently transfected (pcDNA3 hCCR7-YPet V317I), on cells; not shown: YPet, C-terminal, kept
T4 sequence (looked up): T1 sequence (looked up) with G291A, V293I

fold fluorescence of bound CCL19-S6^649P1 against wild-type CCR7 [1]: ~2 fold
fold fluorescence of bound CCL19-S6^649P1 against wild-type CCR7 [2]: ~2 fold
B1: human CCL19-S6 site-specifically labelled with Dy649P1 (hCCL19-S6^649P1) (ligand, UniProt Q99731 22-98, looked up)
chain: GTNDAEDCCLSVTQKPIPGYIVRNFHYLLIKDGCRVPAVVFTTLRGRQLCAPPDQPWVERIIQRLQRTSAKMKRRSS
modifications: Dy649P1 covalently and site-specifically attached (CoA-Dy649P1, SFP synthase)

Kd [3]: ~10 nM
Kd [4]: ~29 nM
Kd [5]: ~7 nM
Kd [6]: ~31 nM
B2: native human CCL19 (hCCL19), unlabelled (ligand, UniProt Q99731 22-98, looked up)
chain: B1 chain
